Assays:
[1] = molecular target: T1, LRP1 (Mus musculus, UniProt Q91ZX7); assay: LRP1 expression in BECs treated with Aβ assemblies (Western blot); type: cell-based; conditions: 100 nM for 2 h, normalised to GAPDH and untreated cells, n = 3
T1 construct: endogenous in cells; host or cells: bEnd3 (ATCC CRL-2299)
Description: Polarized bEnd3 were washed twice with PBS and RIPA buffer containing protease inhibitors (1:50) was added directly to the transwell membranes and left on ice for 1 h. Cells were collected, centrifuged and the supernatant was collected for Western blot analysis. WT, KO and APP-PS1 mice were anaesthetized, decapitated and the brains were carefully collected from the skull. Brains were homogenized in a 4-fold excess volume of ice-cold buffer solution: 10 mM HEPES, 141 mM NaCl, 4 mM KCl, 2.8 mM CaCl2, 1 mM MgSO4, 1 mM NaH2PO4 and 10 mM glucose (pH 7.4) in a glass homogenizer (10–15 strokes). Microvessels and capillary-depleted fractions were prepared from WT, KO and APP-PS1 mice brains, as previously described.[28] Homogenate was suspended in an equal volume of 26% (w/v) dextran (64–76 kDa), mixed and centrifuged at 15 800 g for 10 min at 4°C. Pellet containing the brain microvessels was carefully separated from the supernatant containing capillary-depleted brain (parenchyma). Both fractions, microvessels and parenchyma, were washed twice in ice-cold buffered solution by centrifugation at 15 800 g for 10 min. Brain microvessels and parenchyma fractions were resuspended in RIPA lysis buffer containing protease inhibitors, centrifuged for 20 min, and the supernatant used for Western blot analysis. Protein levels in the lysates were determined using a BCA Protein Assay Kit. Lysates were mixed with Laemmli sample buffer, and proteins (25 µg) were separated on 10% SDS polyacrylamide gels and transferred to polyvinylidene difluoride (PVDF) membranes. All membranes were blocked with 5% (w/v) non-fat milk in Tris-buffered saline (TBS) containing 0.1% (w/v) Tween-20 (TBS-T) for 1 h and then incubated at 4°C with the primary antibody overnight. After washing with TBS-T three times for 5 min, membranes were incubated with the corresponding secondary antibody for 1 h at room temperature, washed with TBS-T and imaged using an Odyssey CLx (LI-COR Biosciences). […]
Cell metabolic activity of BECs was assessed by using the RealTime-Glo™ MT Cell Viability Assay. […]

[2] = Transmission electron microscopy of Aβ assemblies; type: physicochemical; conditions: negative staining, ∼0.5 mg ml^−1 dispersion
Description: Peptide films were then resuspended in dimethyl sulfoxide (DMSO) to 5 mM, bath sonicated for 10 min and vortexed for 30 s. […] Immediately before use, the oligomeric solutions were centrifuged at 14 000 g for 10 min at 4°C (to remove any fibrils that might be present), and the supernatant was diluted to the final experimental concentration. […] TEM imaging was performed using a JOEL JEM-2200FS microscope equipped with a field emission gun at 200 kV, and an in-column Omega filter. TEM microscope was used in energy-filtered mode with the slit inserted to increase image contrast by collecting only elastically scattered electrons. Digital Micrograph™ software (version 3.20) was used for image acquisition and processing. […] For sample preparation, 400 mesh copper grids were glow-discharged for 40 s to render them hydrophilic. […] The grid was blotted with filter paper and immersed in Uranyless staining solution for 40 s for negative staining. The grid was blotted again and dried under vacuum for 1 min.

[3] = molecular target: T2, LRP1/Rab5 (Mus musculus, UniProt Q91ZX7); assay: Proximity ligation assay LRP1/Rab5 in BECs treated with Aβ assemblies; type: cell-based; conditions: Aβ assemblies at 100 nM for 15 min (Fig. 6B2)
T2 construct: endogenous in cells; host or cells: bEnd3 (ATCC CRL-2299)
Description: (§1) Polarized bEnd3 were washed twice with PBS, fixed in 4% (w/v) PFA in PBS for 15 min and permeabilized with 0.1% (w/v) Triton X-100 in PBS for 10 min. PLA was carried out by using Duolink probes and detection reagents according to the supplier’s instructions. Briefly, monolayers were incubated with Duolink blocking solution for 1 h at 37°C and then incubated with the two antibodies targeting each protein of interest overnight at 4°C. Subsequently, cells were incubated with Duolink PLA probes (anti-rabbit and anti-mouse) for 1 h at 37°C, washed and incubated with Duolink ligase and polymerase enzymes for 30 and 100 min, respectively. As a negative control, PLA protocol was followed with the exception of the addition of the primary antibodies to determine the specificity of the PLA probes. Nuclei were counterstained by incubation with DAPI for 10 min. Membranes were mounted in glass coverslips using Vectashield Mounting Media. Images were acquired using a Leica TCS SP8 confocal microscope, via sequential scan to reduce fluorophore bleed-through, with a 63× oil immersion objective. z-stacks (10–20 stacks per sample) were collected (20 optical sections) and fluorescence intensity of the PLA signal was quantified using ImageJ. The abundance of PLA signal was normalized by the number of nuclei in each z-stack image. List of antibodies in Supplementary material.
Cell metabolic activity of BECs was assessed by using the RealTime-Glo™ MT Cell Viability Assay. Cells were seeded in 96-well plates at a density of 10 000 cells per well and incubated with Aβ assemblies at concentrations ranging 0.001–1 µM for 1 and 24 h. RealTime-Glo™ MT Assay was carried out according to the supplier’s instructions. […] To evaluate the effect of Aβ assemblies in the expression of LRP1, cells were treated for 2 h with Aβ at 10 µM and then, cells were collected and analysed by Western blotting, as described above.

[4] = test system: syndapin-2; assay: Proximity ligation assay Aβ/syndapin-2 in BECs treated with Aβ assemblies; type: cell-based, mouse; conditions: Aβ assemblies at 100 nM for 15 min (Fig. 6C1)
Description: as §1, with “Nuclei were counterstained by incubation with DAPI for 10 min. Membranes were mounted in glass coverslips using Vectashield Mounting Media.” left out, “The abundance of PLA signal was normalized by the number of nuclei in each z-stack image. List of antibodies in Supplementary material.” left out
Cell metabolic activity of BECs was assessed by using the RealTime-Glo™ MT Cell Viability Assay. […] To evaluate the effect of Aβ assemblies in the expression of LRP1, cells were treated for 2 h with Aβ at 10 µM and then, cells were collected and analysed by Western blotting, as described above.

[5] = molecular target: T3, LRP1/syndapin-2 (Mus musculus, UniProt Q91ZX7); assay: Proximity ligation assay LRP1/syndapin-2 in BECs treated with Aβ; type: cell-based; conditions: Aβ assemblies at 100 nM for 15 min (Fig. 6B1)
T3 construct: endogenous in cells; host or cells: bEnd3 (ATCC CRL-2299), polarized

[6] = Thioflavin T (ThT) fluorescence assay of Aβ assemblies; type: physicochemical; conditions: Aβ preparation 10 µM in PBS with ThT 50 µM, 37°C, 450/485 nm; n = 3
Description: Aβ assemblies were prepared according to previously described protocols.[48],[49] Briefly, Aβ (1–40) peptide was dissolved in hexafluoro-2-propanol at 1 mM, vortexed and bath sonicated to obtain a homogenous solution, and aliquoted to microcentrifuge tubes. HIPF was removed by overnight evaporation and, once all solvent was removed, Aβ (1–40) films were stored at −80°C until further processed. Peptide films were then resuspended in dimethyl sulfoxide (DMSO) to 5 mM, bath sonicated for 10 min and vortexed for 30 s. […] Immediately before use, the oligomeric solutions were centrifuged at 14 000 g for 10 min at 4°C (to remove any fibrils that might be present), and the supernatant was diluted to the final experimental concentration. […] Monomeric Aβ was obtained by dissolving the peptide directly in DMSO at 1 mM. […] Aβ assemblies were characterized by measuring ThT fluorescence and transmission electron microscopy (TEM). […] Briefly, each Aβ preparation (20 µl, 10 µM) was incubated with ThT solution (80 µl, 50 µM) at 37°C and then the fluorescence of ThT was measured at 450/485 nm in a 96-well plate using a Spark Multimode microplate reader (Tecan). […] Images were recorded using a direct detection camera K2 IS from Gatan working in counted mode to allow for the sensitive Aβ structures to be imaged at low electron doses without beam damage. […]

T1 sequence (Q91ZX7 20-4545): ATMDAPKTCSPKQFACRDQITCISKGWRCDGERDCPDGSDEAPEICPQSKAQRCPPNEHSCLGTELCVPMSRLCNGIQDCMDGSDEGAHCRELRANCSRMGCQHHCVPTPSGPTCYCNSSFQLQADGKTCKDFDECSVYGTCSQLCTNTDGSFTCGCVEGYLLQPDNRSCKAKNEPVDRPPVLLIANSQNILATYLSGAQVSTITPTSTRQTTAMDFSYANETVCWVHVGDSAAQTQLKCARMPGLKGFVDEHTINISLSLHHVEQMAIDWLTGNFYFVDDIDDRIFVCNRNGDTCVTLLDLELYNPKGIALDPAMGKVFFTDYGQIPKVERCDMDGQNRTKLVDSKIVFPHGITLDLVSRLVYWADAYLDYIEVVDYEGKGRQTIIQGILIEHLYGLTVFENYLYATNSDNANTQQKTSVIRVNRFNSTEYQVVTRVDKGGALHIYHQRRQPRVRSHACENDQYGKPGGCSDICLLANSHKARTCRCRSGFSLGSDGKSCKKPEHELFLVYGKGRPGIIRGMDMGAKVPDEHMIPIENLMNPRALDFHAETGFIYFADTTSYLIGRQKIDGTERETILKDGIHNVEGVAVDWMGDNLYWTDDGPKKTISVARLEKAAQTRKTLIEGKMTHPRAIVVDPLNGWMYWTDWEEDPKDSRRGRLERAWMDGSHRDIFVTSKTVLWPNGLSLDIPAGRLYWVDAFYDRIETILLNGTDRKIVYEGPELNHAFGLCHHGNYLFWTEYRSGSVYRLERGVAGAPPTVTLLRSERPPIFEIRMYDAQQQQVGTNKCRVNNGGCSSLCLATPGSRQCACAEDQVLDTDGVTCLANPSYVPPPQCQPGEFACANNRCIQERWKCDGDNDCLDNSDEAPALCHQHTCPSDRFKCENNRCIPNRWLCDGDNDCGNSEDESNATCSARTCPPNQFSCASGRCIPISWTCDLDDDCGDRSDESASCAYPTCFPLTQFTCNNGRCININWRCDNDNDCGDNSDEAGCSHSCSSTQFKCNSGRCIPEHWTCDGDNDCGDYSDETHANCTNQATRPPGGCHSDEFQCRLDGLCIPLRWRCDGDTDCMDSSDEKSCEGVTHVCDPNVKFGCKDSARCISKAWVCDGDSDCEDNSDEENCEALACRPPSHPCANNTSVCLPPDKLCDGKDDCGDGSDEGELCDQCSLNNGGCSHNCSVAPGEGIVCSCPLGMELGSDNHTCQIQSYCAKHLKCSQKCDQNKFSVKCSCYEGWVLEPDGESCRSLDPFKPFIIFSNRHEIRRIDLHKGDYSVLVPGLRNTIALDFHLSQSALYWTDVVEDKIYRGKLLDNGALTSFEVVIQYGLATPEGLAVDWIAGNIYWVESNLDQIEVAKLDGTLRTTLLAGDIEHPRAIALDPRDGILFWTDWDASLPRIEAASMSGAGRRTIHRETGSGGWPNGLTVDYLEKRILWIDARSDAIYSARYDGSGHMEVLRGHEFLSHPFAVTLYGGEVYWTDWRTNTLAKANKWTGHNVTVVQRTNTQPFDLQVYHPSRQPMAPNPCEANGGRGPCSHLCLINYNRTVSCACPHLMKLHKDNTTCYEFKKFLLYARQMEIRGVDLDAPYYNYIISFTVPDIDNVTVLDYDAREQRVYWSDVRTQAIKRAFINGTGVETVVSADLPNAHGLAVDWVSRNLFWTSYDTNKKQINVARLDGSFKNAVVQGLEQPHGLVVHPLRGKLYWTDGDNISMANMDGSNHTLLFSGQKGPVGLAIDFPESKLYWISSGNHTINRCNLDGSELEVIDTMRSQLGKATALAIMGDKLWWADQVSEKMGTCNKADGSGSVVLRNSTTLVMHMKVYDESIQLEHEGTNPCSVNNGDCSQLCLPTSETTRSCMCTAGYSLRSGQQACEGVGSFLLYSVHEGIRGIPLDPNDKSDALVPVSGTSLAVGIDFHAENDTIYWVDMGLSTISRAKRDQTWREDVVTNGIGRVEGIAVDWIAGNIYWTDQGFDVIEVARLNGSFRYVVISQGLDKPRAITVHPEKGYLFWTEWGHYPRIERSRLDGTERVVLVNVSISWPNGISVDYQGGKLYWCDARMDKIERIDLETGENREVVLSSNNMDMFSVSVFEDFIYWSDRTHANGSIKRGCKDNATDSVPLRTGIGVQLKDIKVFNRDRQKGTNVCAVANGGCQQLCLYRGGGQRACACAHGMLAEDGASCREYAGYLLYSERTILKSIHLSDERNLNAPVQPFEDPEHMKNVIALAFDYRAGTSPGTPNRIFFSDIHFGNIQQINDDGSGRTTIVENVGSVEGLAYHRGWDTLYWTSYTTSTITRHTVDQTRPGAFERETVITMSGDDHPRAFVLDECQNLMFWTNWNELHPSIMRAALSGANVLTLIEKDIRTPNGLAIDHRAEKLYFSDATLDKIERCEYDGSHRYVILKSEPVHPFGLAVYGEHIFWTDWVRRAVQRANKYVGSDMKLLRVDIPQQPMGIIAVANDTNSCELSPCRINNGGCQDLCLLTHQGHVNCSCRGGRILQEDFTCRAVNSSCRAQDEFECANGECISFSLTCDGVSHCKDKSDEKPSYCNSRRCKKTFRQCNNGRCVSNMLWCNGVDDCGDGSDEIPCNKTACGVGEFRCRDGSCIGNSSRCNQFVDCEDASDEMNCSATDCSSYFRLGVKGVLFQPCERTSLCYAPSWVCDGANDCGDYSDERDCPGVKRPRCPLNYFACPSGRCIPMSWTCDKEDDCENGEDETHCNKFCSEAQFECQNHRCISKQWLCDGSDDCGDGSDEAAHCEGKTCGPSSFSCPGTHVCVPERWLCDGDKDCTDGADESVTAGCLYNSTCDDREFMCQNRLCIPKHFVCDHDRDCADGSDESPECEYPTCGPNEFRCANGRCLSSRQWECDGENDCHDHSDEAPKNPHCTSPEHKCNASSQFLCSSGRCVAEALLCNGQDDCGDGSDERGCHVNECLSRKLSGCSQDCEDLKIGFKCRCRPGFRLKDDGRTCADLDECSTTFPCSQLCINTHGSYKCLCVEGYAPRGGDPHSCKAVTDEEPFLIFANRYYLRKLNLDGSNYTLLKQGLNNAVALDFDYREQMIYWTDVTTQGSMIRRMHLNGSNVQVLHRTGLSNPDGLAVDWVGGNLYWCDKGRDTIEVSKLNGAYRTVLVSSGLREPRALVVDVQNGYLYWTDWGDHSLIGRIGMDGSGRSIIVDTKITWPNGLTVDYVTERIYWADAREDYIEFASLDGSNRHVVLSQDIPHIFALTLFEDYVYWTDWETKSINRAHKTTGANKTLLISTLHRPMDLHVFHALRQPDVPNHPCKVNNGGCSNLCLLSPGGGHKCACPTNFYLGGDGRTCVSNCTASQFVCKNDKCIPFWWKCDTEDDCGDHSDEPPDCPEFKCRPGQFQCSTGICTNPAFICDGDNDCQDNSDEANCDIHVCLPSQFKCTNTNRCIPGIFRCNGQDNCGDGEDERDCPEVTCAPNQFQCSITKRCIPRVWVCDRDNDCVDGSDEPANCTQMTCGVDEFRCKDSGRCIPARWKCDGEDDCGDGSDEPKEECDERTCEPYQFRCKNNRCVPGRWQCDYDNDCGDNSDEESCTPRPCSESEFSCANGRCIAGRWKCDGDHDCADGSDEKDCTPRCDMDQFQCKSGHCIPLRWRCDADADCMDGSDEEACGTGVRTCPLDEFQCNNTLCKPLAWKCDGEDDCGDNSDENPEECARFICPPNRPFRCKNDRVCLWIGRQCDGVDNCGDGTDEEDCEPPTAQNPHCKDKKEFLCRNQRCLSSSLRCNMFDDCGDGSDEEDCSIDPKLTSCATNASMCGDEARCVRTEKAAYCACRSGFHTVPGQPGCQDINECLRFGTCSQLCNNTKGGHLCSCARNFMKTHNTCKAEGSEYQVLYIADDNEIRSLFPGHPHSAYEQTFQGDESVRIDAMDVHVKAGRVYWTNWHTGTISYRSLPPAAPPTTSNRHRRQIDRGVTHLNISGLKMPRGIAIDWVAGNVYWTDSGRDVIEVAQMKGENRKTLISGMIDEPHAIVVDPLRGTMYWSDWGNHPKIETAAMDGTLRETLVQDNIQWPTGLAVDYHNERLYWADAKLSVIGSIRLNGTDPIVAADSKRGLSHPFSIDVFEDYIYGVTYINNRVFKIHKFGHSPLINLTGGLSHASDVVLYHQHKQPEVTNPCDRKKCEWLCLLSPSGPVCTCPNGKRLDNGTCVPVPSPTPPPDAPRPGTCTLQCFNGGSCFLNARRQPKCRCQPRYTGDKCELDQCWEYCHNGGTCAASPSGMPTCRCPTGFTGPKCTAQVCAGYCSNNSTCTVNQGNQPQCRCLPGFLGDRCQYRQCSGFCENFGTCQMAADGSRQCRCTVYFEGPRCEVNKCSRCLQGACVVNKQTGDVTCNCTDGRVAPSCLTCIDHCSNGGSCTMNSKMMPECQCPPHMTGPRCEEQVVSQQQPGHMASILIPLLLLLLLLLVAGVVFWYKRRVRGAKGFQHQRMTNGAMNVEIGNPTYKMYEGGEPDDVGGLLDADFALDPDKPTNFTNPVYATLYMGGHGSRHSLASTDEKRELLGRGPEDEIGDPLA

Substance | LRP1 expression [1] | Morphology (TEM) [2] | LRP1/Rab5 association (PLA) [3] | Association of Aβ with syndapin-2 (PLA) [4] | LRP1/syndapin-2 interaction (PLA), comparison among assemblies [5] | ThT fluorescence intensity (fibril structure) [6] | Reduction in the expression levels of LRP1 [1] | Thickness of fibrils (TEM) [2]
Aβ monomers: Monomeric Aβ obtained by dissolving the Aβ (1–40) peptide directly in DMSO at 1 mM | unaltered | small assemblies and agglomerates | favour LRP1/Rab5 association | – | – | – | – | –
Aβ oligomers: Aβ (1–40) oligomers formed in PBS at 4°C for 24 h, supernatant after centrifugation | unaltered | – | decrease | more associated with syndapin-2 | highest increase | – | – | –
Aβ fibrils: Aβ (1–40) fibrils prepared in cold 10 mM HCl, incubated at 37°C for 24 h | – | – | favour LRP1/Rab5 association | – | – | characteristic increase in the fluorescence intensity of ThT | 2 fold | ~10 nm
